Data taken from patent publication US20130039923A1 (Novo Nordisk, published 2013).
Changes are numbered by the printed parent chain. Blank lines part the entries; values can stand above or below the binder they belong to. Ends that are not written are not given here.

Legend:
[1] = molecular target: T1, Peptide no. 58 (Figure 8A); experiment: Ala-scan peptide array of hIL20 74-96 on cellulose; fluorescein-labelled antibody; fluorescence as OD
T1 construct: Ala-scan peptide on the array; also called Peptide no; L93A
T1 peptide: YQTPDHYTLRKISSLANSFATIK
Method: (§1) The screenings were done using fluorescence labelled antibodies. The labelling was done by gel-filtering the antibody stock against 1% NaHCO3, using NAP5 column (GE Healthcare according the manual from manufacturer. This was followed by adding 25 mole equivalents of 5(6)-carboxyfluorescein N-hydroxysuccinimide ester (Sigma, C1609) dissolved in DMSO. The coupling was allowed to continue for 2 hours followed by a gelfiltration against TRIS washing buffer (50 mM TRIS, pH=7.4, 0.15M NaCl, 0.1 M ArgHCl, 0.05% Tween 20) in order to removed uncoupled fluorescein.
(§2) Screening of arrays were done by adding 10 μl of antibody to 30 ml incubation buffer (0.5% BSA, 50 mM TRIS, pH=7.4, 0.15M NaCl, 0.1 M ArgHCl, 0.05% Tween 20). The sheets were incubated for 1-2 hours, followed by washing five times with washing buffer. […] The fluorescence intensity were measured and transformed into digits that were exported to Prism 5 (Graph Pad Software, USA) for further analysis.

[2] = molecular target: T2, Peptide no. 57 (Figure 8A); experiment: as above
T2 construct: Ala-scan peptide on the array; also called Peptide no; F92A
T2 peptide: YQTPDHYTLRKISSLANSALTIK
Method: as §1, §2

[3] = molecular target: T3, Peptide no. 56 (Figure 8A); experiment: as above
T3 construct: Ala-scan peptide on the array; also called Peptide no; S91A
T3 peptide: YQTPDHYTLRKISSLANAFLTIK
Method: as §1, §2

[4] = molecular target: T4, Peptide no. 54 (Figure 8A); experiment: as above
T4 construct: Ala-scan peptide on the array; also called Peptide no; L88A
T4 peptide: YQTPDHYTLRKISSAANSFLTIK
Method: as §1, §2

[5] = molecular target: T5, recombinant human interleukin-20 (human, UniProt Q9NYY1 25-176); experiment: SPR (Biacore 3000/T100), antibody amine-coupled on CM5, recombinant hIL20 injected 3.125-100 nM, 1:1 Langmuir, 25 C; antibody from hybridoma
T5 construct: also called hIL20; IL20
T5 sequence: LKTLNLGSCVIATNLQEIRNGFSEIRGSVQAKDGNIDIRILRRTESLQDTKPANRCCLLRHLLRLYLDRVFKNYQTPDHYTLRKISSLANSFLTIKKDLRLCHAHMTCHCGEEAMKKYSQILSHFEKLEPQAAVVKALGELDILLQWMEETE
Method: (§3) Affinity studies were performed using a direct binding procedure, with the monoclonal antibody covalently coupled via free amine groups to the carboxymethylated dextrane membrane (CM5) on the sensor chip surface. […] The kinetic parameters for the interaction could be calculated using a 1:1 interaction Langmuir fitting model.
(§4) The purified monoclonal antibodies were immobilized in individual flow cells on a CM5 type sensor chip. Immobilizations were performed using a standard amine coupling procedure, aiming for an immobilization level of 1000 Resonance Units (RU). The antibodies were diluted to 5 μg/ml in 10 mM NaAc pH 5.0. […] Association (injection) was 3 min., followed by a 30 min. dissociation (wash) period. Flow rate was 30 μl/min. Experiments were performed at 25° C. Regeneration of the surface following each cycle, was accomplished by injection of 30 sec. pulse of 10 mM Glycin-HCl pH 1.8, at a 30 ul/min flow rate. Detection in all flow cells simultaneously. Flow cell No. 1 contained no immobilized antibody, and was used for subtraction of background and bulk. […] Data was inspected for mass-transport limitations prior to calculation of the kinetic parameters. Experiments were performed on Biacore 3000 and T100 instruments. Data was evaluated using Biaeval 4.1 and Biacore T100 evaluation software.

[6] = molecular target: T5, recombinant human interleukin-20; experiment: SPR (Biacore 3000/T100), antibody amine-coupled on CM5, recombinant hIL20 injected 3.125-100 nM, 1:1 Langmuir, 25 C; antibody from HEK293
Method: as §3, §4

[7] = molecular target: T6, Peptide no. 1 (Figures 7A, 7B) (N-terminus acylated); experiment: array of terminally truncated, acylated hIL20 peptides on cellulose; fluorescein-labelled antibody; fluorescence as OD
T6 construct: peptide array on cellulose
T6 peptide: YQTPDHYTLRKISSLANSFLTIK
Method: as §1, §2

[8] = molecular target: T7, Peptide no. 15 (Figures 7A, 7B) (N-terminus acylated); experiment: as above
T7 construct: peptide array on cellulose
T7 peptide: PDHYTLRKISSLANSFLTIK
Method: as §1, §2

[9] = molecular target: T8, Peptide no. 16 (Figures 7A, 7B) (also: N-terminus acylated); experiment: as above
T8 construct: peptide array on cellulose
T8 peptide: DHYTLRKISSLANSFLTIK
Method: as §1, §2

[10] = molecular target: T9, Peptide no. 14 (Figures 7A, 7B) (N-terminus acylated); experiment: as above
T9 construct: peptide array on cellulose
T9 peptide: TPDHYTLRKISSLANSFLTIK
Method: as §1, §2

[11] = molecular target: T10, Peptide no. 5 (Figures 7A, 7B) (also: N-terminus acylated); experiment: as above
T10 construct: peptide array on cellulose
T10 peptide: YQTPDHYTLRKISSLANSF
Method: as §1, §2

[12] = molecular target: T11, Peptide no. 17 (Figures 7A, 7B) (also: N-terminus acylated); experiment: as above
T11 construct: peptide array on cellulose
T11 peptide: HYTLRKISSLANSFLTIK
Method: as §1, §2

[13] = molecular target: T12, Peptide no. 2 (Figures 7A, 7B) (N-terminus acylated); experiment: as above
T12 construct: peptide array on cellulose
T12 peptide: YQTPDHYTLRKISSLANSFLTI
Method: as §1, §2

[14] = molecular target: T13, Peptide no. 6 (Figures 7A, 7B) (also: N-terminus acylated); experiment: as above
T13 construct: peptide array on cellulose
T13 peptide: YQTPDHYTLRKISSLANS
Method: as §1, §2

[15] = molecular target: T14, Peptide no. 7 (Figures 7A, 7B) (also: N-terminus acylated); experiment: as above
T14 construct: peptide array on cellulose
T14 peptide: YQTPDHYTLRKISSLAN
Method: as §1, §2

[16] = molecular target: T15, Peptide no. 4 (Figures 7A, 7B) (N-terminus acylated); experiment: as above
T15 construct: peptide array on cellulose
T15 peptide: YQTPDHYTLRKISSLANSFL
Method: as §1, §2

[17] = molecular target: T16, Peptide no. 13 (Figures 7A, 7B) (N-terminus acylated); experiment: as above
T16 construct: peptide array on cellulose
T16 peptide: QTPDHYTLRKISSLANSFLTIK
Method: as §1, §2

[18] = molecular target: T17, Peptide no. 3 (Figures 7A, 7B) (N-terminus acylated); experiment: as above
T17 construct: peptide array on cellulose
T17 peptide: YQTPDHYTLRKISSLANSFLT
Method: as §1, §2

[19] = molecular target: T5, recombinant human interleukin-20; experiment: cell-based or functional assay
[20] = molecular target: T18, Peptide no. 87 (Figure 6A); experiment: 18mer hIL20 peptide array on cellulose, 4 residue walk; fluorescein-labelled antibody; fluorescence as OD
T18 construct: also called Peptide no
T18 peptide: PDHYTLRKISSLANSFLT
Method: as §1, §2

[21] = molecular target: T19, Peptide no. 86 (Figure 6A); experiment: as above
T19 construct: also called Peptide no
T19 peptide: NYQTPDHYTLRKISSLAN
Method: as §1, §2

- binding result [1]: binds
- binding result [2]: binds
- binding result [3]: binds
- binding result [4]: binds
- Kd [5]: 0.55 nM
- koff [5]: 0.00011 s⁻¹
- kon [5]: 190000 M⁻¹ s⁻¹
- Kd [6]: 0.032 nM
- koff [6]: 6.3e-05 s⁻¹
- kon [6]: 1.9e+06 M⁻¹ s⁻¹
- binding result [7]: binds
- binding result [8]: binds
- binding result [9]: binds
- binding result [10]: binds
- binding result [11]: binds
- binding result [12]: binds
- binding result [13]: binds
- binding result [14]: binds
- binding result [15]: binds
- binding result [16]: binds
- binding result [17]: binds
- binding result [18]: binds
- IC50, inhibition of IL20 induced proliferation of BaF-3(hIL20R) at 1e-9M hIL20 (assay 1) [19]: 180 nM
- IC50, inhibition of IL20 induced proliferation of BaF-3(hIL20R) at 1e-9M hIL20 (assay 2) [19]: 420 nM
- IC50, inhibition of IL20 induced proliferation of BaF-3(hIL20R) at 1e-9M hIL20 (assay 3) [19]: 340 nM
- IC50, inhibition of IL20 induced proliferation of BaF-3(hIL20R) at 1e-9M hIL20 (assay 6) [19]: 120 nM
- IC50, inhibition of IL20 induced proliferation of BaF-3(hIL20R) at 1e-9M hIL20 (assay 7) [19]: 436 nM
- binding result [20]: binds
- binding result [21]: binds
B1: human anti-hIL20 monoclonal antibody 15D2 (antibody, V domains shown)
VH: QVQLVQSGAEVKRPGASVKVSCKASGYTFTNDIIHWVRQAPGQRLEWMGWINAGYGNTQYSQNFQDRVSITRDTSASTAYMELISLRSEDTAVYYCAREPLWFGESSPHDYYGMDVWGQGTTVTVSS
VL: AIQLTQSPSSLSASVGDRVTITCRASQGISSALAWYQQKPGKAPKLLIYDASSLESGVPSRFSGSGSGTDFTLTISSLQPEDFATYYCQQFNSYPLTFGGGTKVEIKR
notes: also called 15D2-wt; 15D2 wild-type

- Kd [5]: 0.75 nM
- koff [5]: 0.0001 s⁻¹
- kon [5]: 140000 M⁻¹ s⁻¹
- IC50, inhibition of IL20 induced proliferation of BaF-3(hIL20R) at 1e-9M hIL20 (assay 1) [19]: 260 nM
- IC50, inhibition of IL20 induced proliferation of BaF-3(hIL20R) at 1e-9M hIL20 (assay 2) [19]: 4540 nM
- IC50, inhibition of IL20 induced proliferation of BaF-3(hIL20R) at 1e-9M hIL20 (assay 3) [19]: 760 nM
- IC50, inhibition of IL20 induced proliferation of BaF-3(hIL20R) at 1e-9M hIL20 (assay 6) [19]: 200 nM
B2: human anti-hIL20 monoclonal antibody 5B7 (antibody, human IgG4, V domains shown)
VH: B1 VH with T30S, N31S, D32H, I34M, Q59K, S69T, S106L
VL: B1 VL
notes: described as human IgG4; also called 5B7-wt
